From the RNAGym collection of RNA variant scans (doi:10.7554/elife.80360)

B1: HDV Ribozyme (parent)
chain: GGCCGGCAUGGUCCCAGCCUCCUCGCUGGCGCCGGCUGGGCAACAUUCCGAGGGGACCGUCCCCUCGGUAAUGGCGAAUGGGACCCA

Variants of: B1
Assay: self-cleavage, relative activity (ratio to wild type); higher = more cleavage; co-transcriptional

Variant	self-cleavage
GGCCCGCAUGGUCCCAGCCUCCUCGCUGGCGCCGGCUGGGCAACAAUCCGAGGGGACCGUCCCCUCGGUAAUGGCGAAUGGGACCCA [G5C U46A]	0.0639
GGUCGGCAUGGUCCCAGCCUCCUCGCUGGUGCCGGCUGGGCAACAUUCCGAGGGGACCGUCCCCUCGGUAAUGGCGAAUGGGACCCA [C3U C30U]	0.345
GGCCGGCAUGGUACCAGCCUCCUCGCUUGCGCCGGCUGGGCAACAUUCCGAGGGGACCGUCCCCUCGGUAAUGGCGAAUGGGACCCA [C13A G28U]	0.172
GGCCGGCAUGGUCCCAGCCUCCUCGCUGGCGCCGCCUGGGCAACAUUCCGAAGGGACCGUCCCCUCGGUAAUGGCGAAUGGGACCCA [G35C G52A]	0.233
GGCCGGCAUGGUCCCAGCCUGCUCGCUGGCGCCGGCUGGGCAACAUUCCGAGGGGACCGUCCCCUCGGUAAUGGCGAAUGGUACCCA [C21G G82U]	0.106
GGCCGGCAUGGUCCCAGCCUCCGCGCUCGCGCCGGCUGGGCAACAUUCCGAGGGGACCGUCCCCUCGGUAAUGGCGAAUGGGACCCA [U23G G28C]	0
GGCCGGCAUGGUCCCAGCCCCCUCGCUGGCGCCGGCGGGGCAACAUUCCGAGGGGACCGUCCCCUCGGUAAUGGCGAAUGGGACCCA [U20C U37G]	0.185
GGCCGGUAUGGUCCCAGCCUCCUCGCUGGCGCCGGCUGGGCAACAUUCCGAGGGGACCGUCCCCUCGGUAAUGGCGAAUGGGACCCC [C7U A87C]	0.968
GGCCGGCAUGGUCCCAGCCUCCUCGCUGGCGCCGGCUAGGCAACAUUCCGAGGGGACCGUCCCCUAGGUAAUGGCGAAUGGGACCCA [G38A C66A]	0.0992
CGCCGGCAUGGUCCCAGCCUCCUCGCUGGCGCCGGCUGGGCAACACUCCGAGGGGACCGUCCCCUCGGUAAUGGCGAAUGGGACCCA [G1C U46C]	0.229
GGCCGGCAUGGUCCCUGCCUCCUCGCUGGCGCCGGCUGGGCAACAUUCCGAGGGGACCAUCCCCUCGGUAAUGGCGAAUGGGACCCA [A16U G59A]	0.967
GGCCGGCAUGGUCCCAGCUUCCUCGCUGGCGCCGGCUGGGCACCAUUCCGAGGGGACCGUCCCCUCGGUAAUGGCGAAUGGGACCCA [C19U A43C]	0.111
AGCCGGCAUGGUCCCAGCCUCGUCGCUGGCGCCGGCUGGGCAACAUUCCGAGGGGACCGUCCCCUCGGUAAUGGCGAAUGGGACCCA [G1A C22G]	0.0978
GGCCGGCAUGGUCCCAGCCUCCUCGCUGGCGCCGGCUGGGCAACAUUCCGAGGGGACCGUCCCCUCGCUAAUGGCGAAUGGGUCCCA [G68C A83U]	0.318
GGCCGGCAUGGUCCCAGCCUCCUCGCUGGCGCCGGCUGGGCAACAUUCCGAGGGGACCGUCGCCUCGGUAAUCGCGAAUGGGACCCA [C62G G73C]	0.446
GGCCGGCAUGGUCCCAGCCUCCUCGCUGGCGCCGGCUGGGCAACAUUCCGAGGGGACCGUCCUCUAGGUAAUGGCGAAUGGGACCCA [C63U C66A]	0.978

Variant	self-cleavage
GGCCGGCAUGGUCCCAGCCUCCUCGCUGGCGCCGGCUGGGCAACACUCCGAGGGGCCCGUCCCCUCGGUAAUGGCGAAUGGGACCCA [U46C A56C]	0.609
GGCCGGCAUGGUCCCAGCCUCCUCGCUGGCGCCGGCUGGGCAACAUUCCGAGGGGACCGUCCCCUCGGUAAUGGCGAAUGGGAGUCA [C84G C85U]	0.719
GGCCGGCAUGGUCCCAGCCUCCUCGCUGGCGCCGGCUGGGCAACAUUCCGAGGGGACCGACCCAUCGGUAAUGGCGAAUGGGACCCA [U60A C64A]	0.878
GGCCGGCAUGGUCCCAGCCUCCUCGCUGGCGCCGGCUCGGCAACAUUCCGAGGGGACCGUCCCCUCGGUAAUGGCGUAUGGGACCCA [G38C A77U]	0.128
GGCCGGCAUGGUCCCAGCCUCCUCGCUGGCGCCGGCUGCGCAACAUUCCGAGGGGACCGUCCCCUCGGUAAUUGCGAAUGGGACCCA [G39C G73U]	0.106
GGCCGGCAUGGUCCCAGCCUCCUCGCUGGCGCCGCCUGGGCAACAUUCAGAGGGGACCGUCCCCUCGGUAAUGGCGAAUGGGACCCA [G35C C49A]	0.119
GGCCGGCAUGGUCCCAGCCUCCUCGCUGGCGCCGGCUGGGCAACAUUCCGAGAGGACCGUCCCCUCGGUACUGGCGAAUGGGACCCA [G53A A71C]	0.623
GGCCGGCAUGGUCCCAUCCUCCUCGCUGGCGCCGGCUGGGCAACAUUCCGAGGGGACCGUCCCCUCGGUAAUGGCGAAUGGGACCGA [G17U C86G]	0.583
GGCCGGCAUGGGCCCAGCCUCCUCGCUGGCGCCGGCUGGGCAACAUUCCGAGGGGACCGUCCCCUCGGUUAUGGCGAAUGGGACCCA [U12G A70U]	1.02
GGCCGGCAUGGGCCCAGCCUCCUCGCUGGCGCCGGCUGGGCAACAUUCCGAGGGGACCGUCCCCUCGGUAAUGGCGAAUGGGUCCCA [U12G A83U]	0.867
GGCCGGCAUGGUCCCAGCCUCCUCGCUGGCGCCGGCUGGGCAACAUUGCUAGGGGACCGUCCCCUCGGUAAUGGCGAAUGGGACCCA [C48G G50U]	0.941
GGCCGGCAUGCUCCCAGCCUCCUCGCUGGCGCCGGCUGGGCAACAUUCUGAGGGGACCGUCCCCUCGGUAAUGGCGAAUGGGACCCA [G11C C49U]	0.332
GGCCGGCAUGGUCCCAGUCUCCUCGCUGGCGCCGGCUGGGCAACAUUCCGAGGGGACCGUCCCCUCGGUAAUGGCGAUUGGGACCCA [C18U A78U]	0.0707
GGCCGGCAUGGUCCCAGCCUCCUCGCUGGCGCCGGCUAGGCAACACUCCGAGGGGACCGUCCCCUCGGUAAUGGCGAAUGGGACCCA [G38A U46C]	0.138
GGCCGGCAUGGUCCCAGCCUCCUCGCUGGCGCCGACUGGGCAACAUUCCGAGGAGACCGUCCCCUCGGUAAUGGCGAAUGGGACCCA [G35A G54A]	0.349
GGCCGGCAUGGUCGCAGCCUCCUCGCUGGCGCCGGCUGGGCAACAUUCCGAGGGGACCGUCCCCACGGUAAUGGCGAAUGGGACCCA [C14G U65A]	0.65
